Changes are numbered by the printed parent chain.
T1: GFP1 Right TAL-PBx (synthetic)
T1 chain: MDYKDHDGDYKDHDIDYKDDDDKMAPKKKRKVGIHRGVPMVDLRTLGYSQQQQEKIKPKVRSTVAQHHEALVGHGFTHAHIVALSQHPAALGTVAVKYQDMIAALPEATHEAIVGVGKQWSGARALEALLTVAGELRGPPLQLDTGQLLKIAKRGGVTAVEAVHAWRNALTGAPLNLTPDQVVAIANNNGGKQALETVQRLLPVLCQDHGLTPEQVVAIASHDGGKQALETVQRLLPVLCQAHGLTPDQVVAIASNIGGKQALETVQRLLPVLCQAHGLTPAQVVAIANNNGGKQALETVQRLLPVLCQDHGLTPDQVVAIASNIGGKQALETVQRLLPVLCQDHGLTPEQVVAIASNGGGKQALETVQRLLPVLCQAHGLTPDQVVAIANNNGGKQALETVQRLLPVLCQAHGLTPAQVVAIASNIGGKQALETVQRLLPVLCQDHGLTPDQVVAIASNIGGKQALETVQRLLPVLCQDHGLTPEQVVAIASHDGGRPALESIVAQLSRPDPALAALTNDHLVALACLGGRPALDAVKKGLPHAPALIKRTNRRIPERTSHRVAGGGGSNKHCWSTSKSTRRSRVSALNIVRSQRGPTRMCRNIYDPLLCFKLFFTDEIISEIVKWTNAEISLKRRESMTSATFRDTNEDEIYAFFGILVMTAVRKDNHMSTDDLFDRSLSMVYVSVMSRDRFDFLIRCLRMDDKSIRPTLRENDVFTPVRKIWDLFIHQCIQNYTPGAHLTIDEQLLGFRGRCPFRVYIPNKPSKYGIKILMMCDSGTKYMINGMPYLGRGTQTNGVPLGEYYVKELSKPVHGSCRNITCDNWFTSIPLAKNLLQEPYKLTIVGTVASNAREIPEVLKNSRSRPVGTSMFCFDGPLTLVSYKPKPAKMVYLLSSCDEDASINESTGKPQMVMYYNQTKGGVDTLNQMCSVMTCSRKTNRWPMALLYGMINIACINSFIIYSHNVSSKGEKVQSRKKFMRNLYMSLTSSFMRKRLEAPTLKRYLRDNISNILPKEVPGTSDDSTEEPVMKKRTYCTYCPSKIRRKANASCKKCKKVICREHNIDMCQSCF

B1: GFP1 Right 12bp TTTAAA (dsDNA)
DNA 1: TGCAGATGAACGCAATCTCCGGTTTAAATACTGACTGAAGTTCATCTGCA
DNA 2: TGCAGATGAACTTCAGTCAGTATTTAAACCGGAGATTGCGTTCATCTGCA
B2: GFP1 Right 12bp CTTAAA (dsDNA)
DNA 1: B1 DNA 1 with T23C
DNA 2: B1 DNA 2 with A28G
B3: GFP1 Right 13bp CTTAAC (dsDNA)
DNA 1: TGCAGATGAACGCAATCTCACGGCTTAACTACTGACCTGAAGTTCATCTGCA
DNA 2: TGCAGATGAACTTCAGGTCAGTAGTTAAGCCGTGAGATTGCGTTCATCTGCA
B4: GFP1 Right 13bp CTTAAG (dsDNA)
DNA 1: B3 DNA 1 with C29G
DNA 2: B3 DNA 2 with G24C
B5: GFP1 Right 13bp TTTAAG (dsDNA)
DNA 1: B3 DNA 1 with C24T, C29G
DNA 2: B3 DNA 2 with G24C, G29A
B6: GFP1 Right 13bp CTTAAA (dsDNA)
DNA 1: B3 DNA 1 with C29A
DNA 2: B3 DNA 2 with G24T
B7: GFP1 Right 13bp TTTAAA (dsDNA)
DNA 1: B3 DNA 1 with C24T, C29A
DNA 2: B3 DNA 2 with G24T, G29A

Target: T1, GFP1 Right TAL-PBx
Assay: cell_activity; HEK293T
Details: tags: PBx fusion; chain copies: 2 (palindromic half-sites; inferred)
Experimental: Each reporter plasmid and donor plasmid were cotransfected into HEK293T cells with the GFP1 Right TAL-PBx expression plasmid (SEQ ID No. 77). […] HEK293T cells were plated in 24 well plates in 500 μL of DMEM medium supplemented with 10% FBS. The following day, a transfection mixture containing 50 ng of the TAL-ssSPB expression vector, 225 ng of the reporter plasmid, 225 ng of donor plasmid and 1 μL of JetPrime transfection reagent in a total volume of 50 μL of JetPrime buffer were assembled. The mixture was added to the HEK293T cells and the cells were incubated for four days at 37° C. at 5% CO2, splitting the cells 1:6 on day one. The percentage of on-target site-specific transposition positive cells for the various constructs were determined by FACS analysis on day 4.
When the reporter and donor plasmids are co-transfected into cells along with TAL-PBx, TAL-PBx catalyzes the excision of the transposon from the donor plasmid and its site-specific integration into the TTAA target site of the reporter plasmid. Following site-specific transposition, transcription, splicing, and translation, a reconstituted GFP coding sequence is produced (DNA SEQ ID No. 75; Amino acid SEQ ID No. 76) and fluorescence can be detected. The percentage of on-target site-specific transposition positive cells for the various spacer length constructs were determined by FACS analysis and the results are shown in Table 9.
For B1, the activity was 30.8 % GFP+ cells. B2 gave an activity of 34.6 % GFP+ cells. Work on B3 yielded an activity of 20.9 % GFP+ cells. Work on B4 yielded an activity of 24.7 % GFP+ cells. In the case of B5, the activity is reported as 32.2 % GFP+ cells. With B6 the activity was 32.8 % GFP+ cells. Work on B7 yielded an activity of 27 % GFP+ cells.
